According to patent publication US20110274702A1 (INSTITUTE FOR RESEARCH IN BIOMEDICINE, published 2011):

B1: FI6 variant 3 (antibody, V domains shown)
VH: QVQLVESGGGVVQPGRSLRLSCAASGFTFSTYAMHWVRQAPGKGLEWVAVISYDANYKYYADSVKGRFTISRDNSKNTLYLQMNSLRAEDTAVYYCAKDSQLRSLLYFEWLSQGYFDYWGQGTLVTVSS
VL: not shown
B2: FI28 variant 1 (antibody, V domains shown)
VH: EVQLVESGGGAVQPGESLKLSCAASGFTFSNYGMHWVRQAPGKGLEWVAVISYDGSNKYYADSVKGRFTISRDNSKDTLYLQMNSLRAEDTALFYCAKERPLRLLRYFDWLSGGANDYWGQGTLVTVSS
VL: DIVMTQSPDSLAVSLGERATINCKSSQSVLYSSNNKNYLAWYQQKPGQPPKLLIDWASTRESGVPDRFSGSGSGTDFTLTISNLQVEDVAVYYCQQYYRSPSFGQGTKLEIK
B3: FI6 variant 2 (antibody, V domains shown)
VH: QVQLVQSGGGVVQPGRSLRLSCVASGFTFSTYAMHWVRQAPGRGLEWVAVISYDGNYKYYADSVKGRFSISRDNSNNTLHLEMNTLRTEDTALYYCAKDSQLRSLLYFEWLSQGYFDPWGQGTLVTVTS
VL: DIQMTQSPDSLAVSLGARATINCKSSQSVTFNYKNYLAWYQQKPGQPPKVLIYWASARESGVPDRFSGSGSGTDFTLTISSLQAEDVAVYYCQQHYRTPPTFGQGTKVEIK

Legend:
Assay in all cases: cell-based or functional assay
[1] = target: H7N1 A/ck/FPV/Ro/34 HA on pseudotyped virus (influenza A virus H7N1 …, UniProt P03459 19-563)
[2] = target: HA A/VN/1194/04 (H5) (influenza A virus H5 A/VN/1194/04)
[3] = target: H5N1 A/VN/1203/04 HA on pseudotyped virus (influenza A virus H5N1 A/VN/1203/04)

Binder | Neutralization H7 A/ck/FPV Rostock/34 pseudovirus, IC50 [1] | Neutralization H5 A/VN/1194/04 pseudovirus, IC50 [2] | Neutralization of HA-pseudotypes (IC90, µg/ml) [3]
B1 | 0.0274 µg/mL | 0.0035 µg/mL | –
B2 | – | – | 0.02 µg/mL
B3 | 0.02 µg/mL | 0.0054 µg/mL | –
